± gives the standard deviation of the averaged measurements.
What follows are sequences tested on ATP (assay: switch fluorescence ratio, 500 uM ATP over buffer (Cy3 cluster intensity, sum of 5 cycles each) (fold (ratio)); higher = stronger signal-on switching upon ATP binding; sequences stand for … in TCGTCGGCAGCGTCAGATGTGTATAAGAGACAGTTTTTTTTTTTTTTTTTTTTTTTTT…TC). Conditions: aptamer strand: ATP DNA aptamer (quencher-CACCTGGGGGAGTATTGCGGAGGAAGG + anchor), 100 nM annealed; ATP concentration: 500 uM.
Outline: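 Values give the fluorescence ratio for each switch-domain sequence, averaged from per-cluster ratios of summed target-cycle to summed buffer-cycle Cy3 intensity. The Cy3-labelled switching-strand clusters sat on a modified Illumina MiSeq flow-cell, were annealed to 100 nM quencher-labelled ATP aptamer, and were imaged in selection buffer, then after 15 min with 500 uM ATP at 22 °C. Five cycles ran with NaOH stripping and re-annealing between them, and clusters outside 100-1000 RFU were excluded.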
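Note: ATP exposure 15 min at 22 °C before imaging.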

Sequence	switch fluorescence ratio
TTGCACGGGC	1.007 ± 0.0052
GGGGCAGGTA	1.04 ± 0.047
GTTGGGCACT	0.992 ± 0.033
TGAAGGATAC	1.28 ± 0.23
TGAGGTTTTT	1.28 ± 0.59
TCCTCAGCGT	3 ± 1
CTAACGGAAT	1.7 ± 0.34
AGATGAATGT	0.987 ± 0.015
ATAGTCACAT	1.02 ± 0.021
TTGGGGCCTC	1 ± 0.033
GACTCAGGGG	1.39 ± 0.56
AATTTTTGGG	0.994 ± 0.03
AATAATGCGG	0.9969 ± 0.0071
AGGAGGTGGG	0.981 ± 0.017
CTTTTACCGG	1.04 ± 0.013
ACACTAATCT	1.16 ± 0.15
AAGGGATTAA	1.01 ± 0.016
TTCCTAAAAG	0.979 ± 0.011
ATAGGTAGTC	0.996 ± 0.02
CGCTCGTTGT	0.9559 ± 0.0033
CGCCGGGTTG	0.984 ± 0.033
CGAATATAAA	0.994 ± 0.054
CGGATTAGGT	0.993 ± 0.028
TGAGGTTTGT	0.98 ± 0.028
TTACGTAGGC	1.09 ± 0.012

Sequence	switch fluorescence ratio
GGGCACAGAA	0.9751 ± 0.0022
GGGTCCATTC	1.01 ± 0.02
CGGTTGGGTC	1.05 ± 0.051
TAATGCGTGG	0.999 ± 0.032
GGAAAGTAGG	1.01 ± 0.046
GTTGGTTGTA	0.987 ± 0.057
ATATTAGTCT	1.001 ± 0.0035
ACATTATTGT	0.982 ± 0.011
TAGGGTAAGG	0.97 ± 0.035
CGCTTTAATA	1.07 ± 0.019
TCGAAGGAAT	1.24 ± 0.037
CCGGTTTTTG	1.01 ± 0.05
AGGGGTATAG	0.995 ± 0.068
ATTCGATATC	1.03 ± 0.012
GCGGGGCCCA	1.01 ± 0.013
GCGGTTGCGT	0.971 ± 0.057
AAATGCTTTA	1.03 ± 0.022
ATGGTTTTTG	1.01 ± 0.013
TTAGTATCGG	0.999 ± 0.052
AGTTTGTTGT	1.06 ± 0.095
AGTTCTATTT	1.01 ± 0.021
GAGGGTAGAG	1.01 ± 0.042
ATATTTTAAG	0.994 ± 0.034
AATGTGCTAG	0.995 ± 0.021
ATAGGATCAT	0.975 ± 0.03

Sequence	switch fluorescence ratio
AAGGGTAGGC	1.03 ± 0.042
AGGGTACTGC	1.02 ± 0.039
ATTAGGTATA	0.9712 ± 0.0036
TTTTTTGAAT	0.995 ± 0.027
ATGGATGGTG	0.96 ± 0.029
CGCGGCAAGG	1.32 ± 0.31
GAAGTACGTC	1.23 ± 0.18
ATTTCTAACT	1.015 ± 0.0022
GGTGAAAGCT	1.04 ± 0.019
CGGACTTATT	0.9686 ± 0.0054
GGGAGTGAGG	1.01 ± 0.011
GTGGGTGGGA	0.982 ± 0.046
GAACTGATGT	1 ± 0.018
AGGTGTAAGG	1.01 ± 0.051
GGGCGGTCGG	1 ± 0.03
GGTCCTGCGG	1.01 ± 0.087
TGGGGGTAAG	0.989 ± 0.03
CGGGAACGGA	0.984 ± 0.033
AGGGAGGGCT	1.02 ± 0.02
TTACTGGGGG	0.999 ± 0.027
TCGTAACTTA	1.03 ± 0.011
ACTTGCCGTA	0.992 ± 0.071
CCATATCGAC	1.05 ± 0.05
TAGGGTCTGT	0.999 ± 0.022
CCGGTGCTCG	1.04 ± 0.047

Sequence	switch fluorescence ratio
TTTGTTTTTC	1.02 ± 0.013
AATTATTGGT	1.01 ± 0.026
CGAGCGGCTA	1.016 ± 0.0013
CGTGCTAGTC	1.04 ± 0.055
GAGTGCTGTT	1.024 ± 0.01
TGGGAACTCG	0.99483 ± 0.00048
GCAGGGGTTG	1.03 ± 0.071
TGTGATGGAG	0.979 ± 0.033
ACTGCTTGGT	0.996 ± 0.017
GTGGCAGGGG	1.36 ± 0.63
AAGCTGCCTG	1.02 ± 0.018
GTTGGGATGT	0.996 ± 0.015
AATTTTTTAA	0.985 ± 0.019
CACTCTGTCA	1.04 ± 0.022
AAGCTGATCT	1.016 ± 0.0071
AGGAGGCTTC	0.983 ± 0.029
GCGTGCGTGT	1.03 ± 0.032
GGTTGGGGTG	1.01 ± 0.037
TGGGTTGGGT	0.993 ± 0.022
GCGCAGTACG	4.91 ± 0.71
GTTTTTTTGT	0.966 ± 0.001
CGTGCGGATG	1.02 ± 0.0057
ACTGGGGGGA	1.02 ± 0.04
CAGGTTAATT	1.02 ± 0.044
GGCACGGAGG	0.989 ± 0.019

From the supplement of paper PMC10126150
